Assays:
Assay in all cases: purified protein
Conditions in all cases: 10 mM HEPES pH 7.5, 200 mM NaCl, 15 µM ZnSO4, 50 µg/mL BSA, 30°C
[1] = tested on: CC(C)(O/N=C(\C(=O)N[C@@H]1C(=O)N2C(C(=O)[O-])=C(C[n+]3ccccc3)CS[C@H]12)c1csc(N)n1)C(=O)O
[2] = tested on: CCN1CCN(C(=O)N[C@@H](C(=O)N[C@@H]2C(=O)N3[C@@H]2SC(C)(C)[C@@H]3C(=O)O)c2ccccc2)C(=O)C1=O
[3] = tested on: CO/N=C(\C(=O)N[C@@H]1C(=O)N2C(C(=O)O)=C(COC(C)=O)CS[C@H]12)c1csc(N)n1
[4] = tested on: CO/N=C(\C(=O)N[C@@H]1C(=O)N2C(C(=O)[O-])=C(C[N+]3(C)CCCC3)CS[C@H]12)c1csc(N)n1
[5] = tested on: C[C@@H](O)[C@H]1C(=O)N2C(C(=O)O)=C(SCCN=CN)C[C@H]12

Row | Substance | Km [1] | kcat [1] | kcat/Km [1] | Km [2] | kcat [2] | kcat/Km [2] | Km [3] | kcat [3] | kcat/Km [3] | Km [4] | kcat [4] | kcat/Km [4] | Km [5] | kcat [5] | kcat/Km [5]
1 | CIM-2 (Chryseobacterium indologenes) | 2,000 ± 300 µM | 380 ± 50 s⁻¹ | 180000 ± 50000 M⁻¹ s⁻¹ | 2,400 ± 500 µM | 48 ± 7 s⁻¹ | 20000 ± 7000 M⁻¹ s⁻¹ | 180 ± 20 µM | 820 ± 30 s⁻¹ | 4.7e+06 ± 700000 M⁻¹ s⁻¹ | 700 ± 200 µM | 28 ± 5 s⁻¹ | 40000 ± 20000 M⁻¹ s⁻¹ | 2,300 ± 300 µM | 2000 ± 200 s⁻¹ | 900000 ± 200000 M⁻¹ s⁻¹
2 | CJO-1 (Chryseobacterium joostei) | 1,000 ± 400 µM | 110 ± 30 s⁻¹ | 100000 ± 60000 M⁻¹ s⁻¹ | 1,900 ± 300 µM | 30 ± 4 s⁻¹ | 16000 ± 5000 M⁻¹ s⁻¹ | 126 ± 4 µM | 528 ± 6 s⁻¹ | 4.2e+06 ± 200000 M⁻¹ s⁻¹ | 440 ± 60 µM | 19 ± 2 s⁻¹ | 43000 ± 9000 M⁻¹ s⁻¹ | 2,700 ± 500 µM | 280 ± 40 s⁻¹ | 100000 ± 30000 M⁻¹ s⁻¹

— PMC12326980
